Test results reported in the DeepSol protein solubility set.

Test: soluble on expression in E. coli; label from the status in PepcDB or PDB records

Sequence	soluble on expression in E. coli
PNSKLARFHASSGTTGKPTVVGYTHKDIDNWAESLARALTSVGVGKEDILQVSYGYGLFTGGLGAHYGSEKVGATVLPTSSGNTERQLELMKDLGTTSIACTPSYFLYMIETARKEGINIRNDTKLRKGFFGAEPWSEELKRRIEEESGIKAYDIYGTSELSGPLFTECDEQ	not soluble
PPHVKYIKEKEICDYEPSSDAGHFRWYPKGKLIRDLLSDYVYNLVVENGGMPVETPVMYDLQNNAIREHADKFGERQYRFKQGNKDLMLRFAACFGQFMMKKDMYLLPKHMPLKLYELSTYSFRYEQRGELVGLKRLRAFTMPDMHTVCIDMKQAMEAFEDQLWMGLKTGDDFKTPYAIIFRFTEDFFEENKEWFFGMAKEYKQKYGKDAILEILPGRKHYWVGKVDMAVVDSFGRPIENPTVQIDVESAERFGIVVHDGDKKVQPIILHCSPTGSVERVLCGLLEN	not soluble
PQEVESYVHRIGRTGRAGKEGTAITFITPQEYRRLLQIQKAVKKEIKKEKLPDVKDVIQAKKFRIIDDIGQILIDNDYDKFKKLAKDLLKMEDAENIVASLLKLSYSDVLDESNYNEISPVKMEDTGKTRLFIAMGRKDGMTPK	not soluble
PVDCSVIVVNKQTKDYAESVGRKVRDLGMVVDLIFLNTEVSLSQALEDVSRGGSPFAIVITQQHQIHRSCTVNIMFGTPQEHRNMPQADAMVLVARNYERYKNECREKEREEIARQA	soluble
PVLATQWNNYQQSRAAEAYSQLEKGVPPEVLNKAWEEAQQYNANLGDIDPGDAWTSSDDESSSAYQRYLNYLSALNETEAMGRIVLPSIKSDLPIFHGTSDRVLARGVGHLYGTDLPVGAPGELGEDGVIPPAPPEGRLS	not soluble
PYHGKSKPNKETFVCDLKTSLSNEAIGYIGKANTVGILLSGGMDSRVVAGVVRDLQKNNRSISVVGITWGNANSRDVIYSQRICQQFGWEFVHFPITAETLHKNIQLSAKMGAEVSALHFHAMSDVADLKGVDVILAGSYGDSVGRAEFSGKHVTKLSSVLPSRINNLGLIKDELFQSALESIRNDAQLPAFHNAGDNNLRKYEIEQECHYMRRMLQSCMHVVAEKIPFYQMFTAPSVFGLMWGLEPNIRNNDWYVELLNILPGQLLQIPWARTGILYHLPEGTADEFDKSYHQYGLWLKTELKDEMLNAMNSKSIRELGIFN	not soluble
QDDSRYTKFLTQHHDAKPKGRDDRYCERMMKRRSLTSPCKDVNTFIHGNKSNIKAICGANGSPYRENLRMSKSPFQVTTCKHTGGSPRPPCQYRASAGFRHVVIACENGLPVHFDESFFSL	soluble
QDFPQSLIIDSFLVNDGKTRGLNLHLDRFRTACLEHGYAHHEQLDAFFAEALRSIPATGQWFPRLEATPTELRIALRPAPQLRGTTTLTSVAAVRPTPKYKGLDLDYLAELRCSSTTDDALLVTPAGVIAETTTAAIIAWDGTKWMSMAPARLESVTESLLINSARAQGEMVVTAALTVPEAQKLNLWAVNSLHGVTPVTHIDEVALPSNPQRSALLRGWLSQSEENIAQV	not soluble
QELPTDLSEVFVDFSKEPLASGSVAQTHRARLLSGQEVIIKIQRPGIDDIVKEDIQLLIKLARHIPKHFISMVDVQEVLENLCETLIKELDFKNEAEAMKRFRANNKRVVCLGVPEVY	not soluble
QINPAARKELVIENDIETMHPVFKGFKDKLVPHLRMAAQGATLTGVNVPIGDKVFRWNLSPIRVDGDISGIIVQGQDITTLIEAEKQSNLARREAEKSAQARADFLAKMSHEIRTPINGILGVAQLLKDSVEAEEQKNQIDVLRHSGEHLLAVLNDILDFSKIEQGKFNIQKHPFSFADTMRTLENIYRPICENKGVELVIENQLDGNVEIFTDQVRLNQILFNLVSNAVKFTPSGCVRLHAELEQFYGADNSVLVVEISDTGIGIESDKLDEMFEPFVQEEATTTR	not soluble
QKFIARNRAPRVQIEYDVELYGAEKKVQLPFVMGVMADLAGKPAEPQAAVADRKFLEIDVDNFDARLKAMKPRVAFNVPNVLTGEGNLSLDITFESMDDFSPAAVARKVDSLNKLLEARTQLANLLTYMDGKTGAEEMIMKAIKDPALLQALASAPKPK	not soluble
QLNQILRAANLHSFAVANLRQVEHATRPTKTMSAGLTIINVPAFYSSQHQLQKQYWTQLQHLIKQTKPTTDLILNFAANTGGSSAPMIAGLAAIIPDGTIYTGITNHHRNRPRMMYHGRITGGLGQDDVNFSQPTAAHFRHIYAIIGNQTASAAEVTIMALKRNPHVTLVGRSSAGYTSLNGGVFLNTAVAVMTIGTLKATVKIHGQQYFNNQPLKPDIPTLYQPLAPLQLGQSPHLDADFLSELRTIMKHYH	not soluble
QLPTIYAITPTYSRPVQKAELTRLANTFRQVAQLHWILVEDAAARSELVSRFLARAGLPSTHLHVPTPRRYKRPGLPRATEQRNAGLAWLRQRHQHQRAQPGVLFFADDDNTYSLELFQEMRTTRKVSVWPVGLVGGRRYERPLVENGKVVGWYTGWRADRPFAIDMAGFAVSLQVILSNPKAVFKRRGSQPGMQESDFLKQITTVEELEPKANNCTKVLVWHTRTEKVNLANEPKYHLDTVKIEV	soluble
QNNKDEKKITKIGVLQFVSHPSLDLIYKGIQDGLAEEGYKDDQVKIDFMNSEGDQSKVATMSKQLVANGNDLVVGIATPAAQGLASATKDLPVIMAAITDPIGANLVKDLKKPGGNVTGVSDHNPAQQQVELIKALTPNVKTIGALYSSSEDNSKTQVEEFKAYAEKAGLTVETFAVPSTNEIASTVTVMTSKVDAIWVPIDNTIASGFPTVVSSNQSSKKPIYPSATAMVEVGGLASVVIDQHDLGVATGKMIVQVLKGAKPADTPVNVFSTGKSVINKKIAQELGITIPESVLKEAGQVI	not soluble
QNPSIYCAGHGIYWVAYDMGTALSTGPVKVEAETSGDIDGRIYGIVLAAVYEDKEGQDTRYWVEEGNINLHDKGRSEEASSTHDEAYADFSGKVDVDRYKTANLAAVYLCGSPGLGDSLYFNDEQLSDGENSNDIANSKSYFDLKFFDVLDFLAEDDNELRFQRDDEDYLHPVFAALSLGTEEEGSSDLIVSGVTLPVLYAGQENIIKANIKNIGRDSAYGFQAALYADNEIVSTASVSSLSSGKSKTIDFNWKPGRSGEHVLKVSVDYTNRKKELCEINNWNIPFLANIIDLTPPEIEIDSPLDGSSVSSGYLKVSGTVEDTSRNTTVDVNGQKALLADKRWSADIPVAPGPNKIVVSAVDGTNNTGKEFILVTGISSGSGNNESFVSGGEREHVNRKVNAEPVSSTIPVYRSDI	not soluble
QRDDVTGVQTLAGNLDPTQWTKTKSLSPLSGSLDPLDYTQRLALIPQRHFSGAGDEMIPTELAERYNRLLGNTACSQLIIVAGATHETGWEEAWKVWRGL	not soluble
QREIQGVRHFVADLSEAARLGLVPGEHYFCVSSIRVDRQHDGAPLCWTDVYAQRDYTAVIELAREHPDQLIAGLIEQHYGRAIAVVDQQVRAVLLTAEMARALKAEAGSPGLKIIRHYREENGDLMAVSETVHPDDRFT	not soluble
QRQPGHFCRSVLLAPVGAFLWQRSLPALMSPLPIRKTIHWLLANKPKLFAHKFSRHAWPDSHYRRMGAGYARCRAFIPYWDMVRADTALPLLEWVQDPIELVWGDQDKVLGIDQAAAWSAILARADLTISLKPGWGHYPWIDSPAEFAQWLES	not soluble
QSKDGSVRHSGDNRTGQGDGDDETITVDLTRLPAAVTTVIFSVNNYTGQDFGQVENAYCRLVNTQGGQEIARYNLSVQGNHSAMILASLKRQGGDWAMTAIGAPSR	not soluble
QSNAIWGLDRIDQRNLPLDRNYNANFDGFGVTAYVIDTGVNNNHEEFGGRSVSGYDFVDNDADSSDCNGHGTHVAGTIGGSQYGVAKNVNIVGVRVLSCSGSGTTSGVISGVDWVAQNASGPSVANMSLGGGQSTALDSAVQGAIQSGVSFMLAAGNSNADACNTSPARVPSGVTVGSTTSSDSRSSFSNWGSCVDLFAPGSQIKSAWYDGGYKTISGTSMATPHVAGVAALYLQENNGLTPLQLTGLLNSRASENKVSDTRGTTNKLLYSLADSGCEPDCGGP	soluble
QTVAIKMGADNGMLAFEPSTIEIQAGDTVQWVNNKLAPHNVVVEGQPELSHKDLAFSPGETFEATFSEPGTYTYYCEPHRGAGMVGKIVVQ	soluble
QTVIKGLVLAADNEAPVSYASIYVAETKSGVVADESGRFILRLHPGRYRLAIRSMGYTPLETELLVGEKSEEKTFRLSSVIYDLKEVEVIGKRPKEDPAYPIMRELIARTPVYEHMVKSYQAKVYTKGSMRLDKLPFWLRYKKADGISAKDLEKKRFVIESQASLEFRHPNKYNKQVRAMRSSIPDDLKSDTTDYMQIISTNIYAKEFSLDGIVNMASPIRTGVLESYTYKLEGTSREKERKVYHISFKGRRDAMRGELWVIDSIWCLQALKLEIKAYDMIRYKVDISLNPLEKDVYLPTTYAIGMEMQSMGLKLEYQYFSSLVYDSLEIDRKLLSTARRAEGLRFRTNREVNRHLRMLESRLDTLGYHLPDKYMLPDTELQAKVRFDSLAFDRDSSYWDAVVTAPLTDEEAQSYANRDSLMQAFEKKRRFGGGREGERTGRTSILGAILGGHDYKMGEGTTLGFNGLIRGSLYDYRYTDGFWLGQSFFFRQKFSKGVDLTLRPILYYTTHRRKLYWDVRADFRYAPLSGGLLSLSAGRQSADLTGPFANTDWRIQTFLTTLVDGRGHLMLYDKKYLRLSNQIDLLPGLQLFLFAEGRHSSPLAENRVWGIFKKPIKNKLIGGIASSPDSLLYSMPDHRSLTVGGSIRYNPAPYYRLDKDGRKRYDGVGTRAPLFGLTYRQAIPLGREHDSDYIYLSGSVRQNLRLNPLHSLYYHFTVGSYFRRHTVHLDEQRYLKADNALFQIGGTLHDSFQTLPPYSYTDQNFLILQTR	not soluble
QVQLQQSGAELVRPGVSVKISCKGSGYTFTDYGMHWVKQSHAKSLEWIGIISTYSGDASYNQKFKGKATMTVDKSSSTAYMELARLTSEDSAIYYCARSSTWYYFDYWGQGTTLTVSSAKTTAPSVYPLAPVCGDTTGSSVTLGCLVKGYFPEPVTLTWNSGSLSSGVHTFPAVLQSDLYTLSSSVTVTSSTWPSQSITCNVAHPASSTKVDKKIEPR	soluble
QVQLQQSGPELVRPGVSVKISCKGSGYTFIDEALHWVKQSHAESLEWIGVIRPYSGETNYNQKFKDKATMTVDISSSTAYLELARLTSEDSAIYYCARDWERGDFFDYWGQGTLVTVSSASTKGPSVFPLAPSSKSTSGGTAALGCLVKDYFPEPVTVSWNSGALTSGVHTFPAVLQSSGLYSLSSVVTVPSSSLGTQTYICNVNHKPSNTKVDKKVEPKSCD	soluble
QVQLQQSGTELVKSGASVKLSCTASGFNIKDTHMNWVKQRPEQGLEWIGRIDPANGNIQYDPKFRGKATITADTSSNTAYLQLSLTSEDTAVYYCATKVIYYQGRGAMDYWGQGTTLTVS	soluble
QVQLVQSGGGLVKPGGSLRLSCAASGFTFSSYAMSWVRQAPGKGLEWVSAISGSGGSTYYADSVKGRFTISRDNSKNTLYLQMSSLRAEDTAVYYCARPYLTYPQRRGPQNVSPFDNWGQGTMVTVSSASTKGPSVFPLAPSSKSTSGGTAALGCLVKDYFPEPVTVSWNSGALTSGVHTFPAVLQSSGLYSLSSVVTVPSSSLGTQTYICNVNHKPSNTKVDKKVEPKSCAAAHHHHHHGAAEQKLISEEDLNGAA	soluble
RALEDEDMRKVFSRLSKSSTIPSDLRRTKELFILMFLLRGLPFVDLAYLRKSDLRGNVITYRRRKTGRSLSVTLTPESMLLLEKHISRDLSSPYLFPILHSIEGSQEAYREYQLALRSFNQHLELLGQWLGLESKLSSYTARHTWATTAYYCEIHPGIISEAMGHSSITVTETYLKPFRNRKIDEAN	not soluble
